Here are results for 21 molecules from PMC4822050, “Hemi-methylated DNA opens a closed conformation of UHRF1 to facilitate its histone recognition” (Nature Communications, 2016).

B7: TTD of UHRF1 (residues 134–285) (domain or fragment, human, UniProt Q96T88 134-285, looked up)
chain: LYKVNEYVDARDTNMGAWFEAQVVRVTRKAPSRDEPCSSTSRPALEEDVIYHVKYDDYPENGVVQMNSRDVRARARTIIKWQDLEVGQVVMLNYNPDNPKERGFWYDAEISRKRETRTARELYANVVLGDDSLNDCRIIFVDEVFKIERPGE
notes: 15N- or 13C/15N-labelled for the NMR work; also called tandem Tudor domain; the isolated TTD

Holding throughout (details): both partners purified
The target in assay [1] is T1, TTD–PHD of UHRF1 (residues 134–366) (human, UniProt Q96T88 134-366).
T1 sequence (looked up): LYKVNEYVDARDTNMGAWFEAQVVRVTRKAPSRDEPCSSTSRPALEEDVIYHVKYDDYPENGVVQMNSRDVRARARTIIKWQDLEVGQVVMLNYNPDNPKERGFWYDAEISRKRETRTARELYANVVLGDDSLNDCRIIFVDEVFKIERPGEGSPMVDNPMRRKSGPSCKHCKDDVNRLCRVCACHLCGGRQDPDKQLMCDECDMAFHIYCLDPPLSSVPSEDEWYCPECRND
Kind of assay: ITC; 0.05 mM protein in the cell, 0.5 mM protein or peptide in the syringe, iTC200, 18 °C, 10 mM HEPES pH 8.0, 100 mM NaCl. (Isothermal titration calorimetry measures the heat released or taken up as one component is titrated into another.)

The target in the next assay is T2, TTD–PHD R295D/R296D (human, UniProt Q96T88 134-366, R295D | R296D).
T2 sequence (looked up): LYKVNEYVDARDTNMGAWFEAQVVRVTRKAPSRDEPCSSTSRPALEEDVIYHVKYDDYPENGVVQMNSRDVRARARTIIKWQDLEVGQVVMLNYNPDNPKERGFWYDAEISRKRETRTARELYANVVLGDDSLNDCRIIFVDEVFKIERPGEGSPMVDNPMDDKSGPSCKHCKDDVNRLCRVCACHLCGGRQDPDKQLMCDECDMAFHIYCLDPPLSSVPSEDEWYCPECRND
The assay is described as above.

Assay [2] has as its target B7. Described as above.
For assay [3], the target named is B7. Kind of assay: ITC; competition ITC: protein pre-incubated with the competing peptide or protein (1:2 molar ratio if not specified) for 10 min, then as a3.
Assay [4] deals with T3, SRA–Spacer of UHRF1 (residues 414–674) (human, UniProt Q96T88 414-674).
T3 sequence (looked up): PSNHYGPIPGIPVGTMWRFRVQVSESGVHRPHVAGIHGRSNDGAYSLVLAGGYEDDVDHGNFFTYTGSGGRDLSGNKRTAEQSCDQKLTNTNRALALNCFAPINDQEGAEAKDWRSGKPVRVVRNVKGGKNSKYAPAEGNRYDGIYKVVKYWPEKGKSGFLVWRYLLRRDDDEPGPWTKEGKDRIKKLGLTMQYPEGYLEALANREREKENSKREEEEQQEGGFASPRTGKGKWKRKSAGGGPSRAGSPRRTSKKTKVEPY
Put plainly: ITC; 0.05 mM protein in the cell, 0.5 mM protein or peptide in the syringe, iTC200, 18 °C, 10 mM HEPES pH 8.0, 100 mM NaCl.

Assay [5] has as its target T3, SRA–Spacer of UHRF1 (residues 414–674). Kind of assay: pull-down; GST pull-down: 15 μg GST-tagged protein with 40 μg recombinant protein in 500 μl 20 mM HEPES-NaOH pH 8.0, 100 mM NaCl, 5% glycerol, 0.1% Triton X-100, 4 °C, glutathione resin, Coomassie staining; some panels with increasing hm-DNA.
Assay [6] addresses T4, SRA of UHRF1 (residues 414–617) (human, UniProt Q96T88 414-617).
T4 construct: human UHRF1, SRA domain, residues 414–617; also called SET-and-RING-associated domain
T4 sequence (looked up): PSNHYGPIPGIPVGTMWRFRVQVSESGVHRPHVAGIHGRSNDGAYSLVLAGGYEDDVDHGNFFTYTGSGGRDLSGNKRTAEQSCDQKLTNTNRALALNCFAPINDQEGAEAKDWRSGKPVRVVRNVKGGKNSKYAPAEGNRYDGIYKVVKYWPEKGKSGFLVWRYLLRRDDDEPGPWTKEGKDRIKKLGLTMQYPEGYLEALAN
Kind of assay: ITC; 0.05 mM protein in the cell, 0.5 mM protein or peptide in the syringe, iTC200, 18 °C, 10 mM HEPES pH 8.0, 100 mM NaCl.

Assay [7] deals with B7. Put plainly: NMR solution structure; TTD/Spacer (627–674) 1:1.2, PBS, 0.01% NaN3, pH 7.4, 10% D2O, 20 °C.

Several values for one entry are separate records, joined by “and”; a condition that tells them apart may be missing. Identical values can stand only once.

B1: Spacer of UHRF1 (residues 587–674) (domain or fragment, human, UniProt Q96T88 587-674, looked up)
chain: PGPWTKEGKDRIKKLGLTMQYPEGYLEALANREREKENSKREEEEQQEGGFASPRTGKGKWKRKSAGGGPSRAGSPRRTSKKTKVEPY
notes: also called the Spacer; Spacer peptide
As usually defined, the Kd is the concentration at which binding is half-saturated. As a reminder, the stoichiometry N is a count of units in the complex or per binding partner. In the case of B1, the Kd in assay [1] is 10.7 µM; with TTD–PHD R295D/R296D, 2.69 µM; in assay [2] it was 1.48 µM and 1.59 µM. In addition, the “stoichiometry N” value in assay [2] was 1. Also, the “fold decrease in binding affinity in the presence of the Linker” value in assay [3] amounted to 2 fold.

B2: Spacer S651D (domain or fragment, human, UniProt Q96T88 587-674, looked up)
chain: PGPWTKEGKDRIKKLGLTMQYPEGYLEALANREREKENSKREEEEQQEGGFASPRTGKGKWKRKDAGGGPSRAGSPRRTSKKTKVEPY
On to B2, for which the binding result in assay [2] is recorded as “binds”.

B3: Spacer R649A (domain or fragment, human, UniProt Q96T88 587-674, looked up)
chain: PGPWTKEGKDRIKKLGLTMQYPEGYLEALANREREKENSKREEEEQQEGGFASPRTGKGKWKAKSAGGGPSRAGSPRRTSKKTKVEPY
For B3, the “fold decrease in binding affinity against the wild-type Spacer” value in assay [2] was around 13 fold.

B4: Spacer K648D (domain or fragment, human, UniProt Q96T88 587-674, looked up)
chain: PGPWTKEGKDRIKKLGLTMQYPEGYLEALANREREKENSKREEEEQQEGGFASPRTGKGKWDRKSAGGGPSRAGSPRRTSKKTKVEPY
Turning to B4, the binding result in assay [2] is on record as “binds”.

B5: Spacer S666D (domain or fragment, human, UniProt Q96T88 587-674, looked up)
chain: PGPWTKEGKDRIKKLGLTMQYPEGYLEALANREREKENSKREEEEQQEGGFASPRTGKGKWKRKSAGGGPSRAGSPRRTDKKTKVEPY
Turning to B5, in assay [2], the binding result is recorded as “binds”.

B6: Spacer S639D (domain or fragment, human, UniProt Q96T88 587-674, looked up)
chain: PGPWTKEGKDRIKKLGLTMQYPEGYLEALANREREKENSKREEEEQQEGGFADPRTGKGKWKRKSAGGGPSRAGSPRRTSKKTKVEPY
Consider B6, for which, in assay [2], the binding result was “binds”. Take B7: in assay [4], the binding result is “binds”.

B8: GST-tagged TTD of UHRF1 (domain or fragment, human, UniProt Q96T88 134-285, looked up)
chain: LYKVNEYVDARDTNMGAWFEAQVVRVTRKAPSRDEPCSSTSRPALEEDVIYHVKYDDYPENGVVQMNSRDVRARARTIIKWQDLEVGQVVMLNYNPDNPKERGFWYDAEISRKRETRTARELYANVVLGDDSLNDCRIIFVDEVFKIERPGE
notes: pGEX-6p-1 derivative vector; also called GST-TTD
As to B8, in assay [5], the binding result is “binds”.

B9: replication focus targeting sequence (RFTS) of DNMT1 (domain or fragment, UniProt P26358 400-533, looked up)
chain: EALPQHKLTCFSVYCKHGHLCPIDTGLIEKNIELFFSGSAKPIYDDDPSLEGGVNGKNLGPINEWWITGFDGGEKALIGFSTSFAEYILMDPSPEYAPIFGLMQEKIYISKIVVEFLQSNSDSTYEDLINKIET
notes: DNMT1, RFTS domain; also called RFTS^DNMT1
On to B9, for which, in assay [4], the Kd was determined as 7.09 µM. That is a single-digit micromolar value.

B10: GST-tagged TTD–PHD of UHRF1 (domain or fragment, human, UniProt Q96T88 134-366, looked up)
chain: LYKVNEYVDARDTNMGAWFEAQVVRVTRKAPSRDEPCSSTSRPALEEDVIYHVKYDDYPENGVVQMNSRDVRARARTIIKWQDLEVGQVVMLNYNPDNPKERGFWYDAEISRKRETRTARELYANVVLGDDSLNDCRIIFVDEVFKIERPGEGSPMVDNPMRRKSGPSCKHCKDDVNRLCRVCACHLCGGRQDPDKQLMCDECDMAFHIYCLDPPLSSVPSEDEWYCPECRND
notes: also called GST-TTD–PHD
Consider B10, for which the binding result in assay [5] is on record as “binds”.

B11: unmodified peptide of Spacer^642–664 (peptide, UniProt Q96T88 642-664, looked up)
peptide: TGKGKWKRKSAGGGPSRAGSPRR
With B11, in assay [2], the binding result is recorded as “binds”.

B12: PHD of UHRF1 (residues 307–366) (domain or fragment, human, UniProt Q96T88 307-366, looked up)
chain: DDVNRLCRVCACHLCGGRQDPDKQLMCDECDMAFHIYCLDPPLSSVPSEDEWYCPECRND
notes: human UHRF1, PHD, residues 307–366; also called plant homeodomain; the isolated PHD
For the molecule B12, in assay [6], the Kd is 26.7 µM.

B13: Linker peptide (289–306) (peptide, UniProt Q96T88 289-306, looked up)
peptide: MVDNPMRRKSGPSCKHCK
notes: also called the Linker
For the molecule B13, the Kd in assay [2] stood at 24 µM.

B14: truncated Spacer (residues 627–674) (domain or fragment, human, UniProt Q96T88 627-674, looked up)
chain: REEEEQQEGGFASPRTGKGKWKRKSAGGGPSRAGSPRRTSKKTKVEPY
notes: modified pRSF-Duet-1 vector; unlabelled or 15N-labelled in the NMR samples; residues 643–655 were built in the model
For B14, in assay [7], the binding result was “binds”.

B15: Spacer^Δ660–664 (domain or fragment, human, UniProt Q96T88 587-674, looked up)
chain: PGPWTKEGKDRIKKLGLTMQYPEGYLEALANREREKENSKREEEEQQEGGFASPRTGKGKWKRKSAGGGPSRATSKKTKVEPY
With B15, the binding result in assay [2] was “binds”.

B16: Spacer^Δ665–669 (domain or fragment, human, UniProt Q96T88 587-674, looked up)
chain: PGPWTKEGKDRIKKLGLTMQYPEGYLEALANREREKENSKREEEEQQEGGFASPRTGKGKWKRKSAGGGPSRAGSPRRKVEPY
Take B16: the binding result in assay [2] is reported as “binds”.

B17: Spacer^Δ655–659 (domain or fragment, human, UniProt Q96T88 587-674, looked up)
chain: PGPWTKEGKDRIKKLGLTMQYPEGYLEALANREREKENSKREEEEQQEGGFASPRTGKGKWKRKSAGGGSPRRTSKKTKVEPY
In the case of B17, the binding result in assay [2] was “binds”.

B18: Spacer^Δ670–674 (domain or fragment, human, UniProt Q96T88 587-674, looked up)
chain: PGPWTKEGKDRIKKLGLTMQYPEGYLEALANREREKENSKREEEEQQEGGFASPRTGKGKWKRKSAGGGPSRAGSPRRTSKKT
With B18, the binding result in assay [2] is reported as “binds”.

B19: Spacer^Δ650–654 (domain or fragment, human, UniProt Q96T88 587-674, looked up)
chain: PGPWTKEGKDRIKKLGLTMQYPEGYLEALANREREKENSKREEEEQQEGGFASPRTGKGKWKRGPSRAGSPRRTSKKTKVEPY
With B19, the binding result in assay [2] is given as “binds”.

B20: Spacer^642–674 (domain or fragment, human, UniProt Q96T88 642-674, looked up)
chain: TGKGKWKRKSAGGGPSRAGSPRRTSKKTKVEPY
As to B20, the binding result in assay [2] is recorded as “binds”.

B21: Spacer^Δ642–651 (domain or fragment, human, UniProt Q96T88 587-674, looked up)
chain: PGPWTKEGKDRIKKLGLTMQYPEGYLEALANREREKENSKREEEEQQEGGFASPRAGGGPSRAGSPRRTSKKTKVEPY
Turning to B21, in assay [2], the binding result was “binds”.
